Data from patent US20110130541A1.

BY-kinase A1B2 from Staphylococcus aureus
Radioactivity incorporated in CapO (cpm); 50 pmol A1B2, 50 pmole CapO, no BYK001, incubation 0.5 min (CapO): 3950 cpm | Radioactivity incorporated in CapO (cpm); 50 pmol A1B2, 50 pmole CapO, no BYK001, incubation 1 min (CapO): 7040 cpm | Radioactivity incorporated in CapO (cpm); 50 pmol A1B2, 50 pmole CapO, no BYK001, incubation 2 min (CapO): 17400 cpm | Radioactivity incorporated in CapO (cpm); 50 pmol A1B2, 50 pmole CapO, no BYK001, incubation 5 min (CapO): 34700 cpm | Radioactivity incorporated in A1B2 (cpm); 50 pmole BYK001, 50 pmole A1B2, incubation 0.5 min (BYK001): 29200 cpm | Radioactivity incorporated in A1B2 (cpm); 50 pmole BYK001, 50 pmole A1B2, incubation 1 min (BYK001): 71700 cpm | Radioactivity incorporated in A1B2 (cpm); 50 pmole BYK001, 50 pmole A1B2, incubation 2 min (BYK001): 133000 cpm | Radioactivity incorporated in A1B2 (cpm); 50 pmole BYK001, 50 pmole A1B2, incubation 5 min (BYK001): 326000 cpm | Radioactivity incorporated in A1B2 (cpm); 500 pmole BYK001, 50 pmole A1B2, incubation 0.5 min (BYK001): 30700 cpm | Radioactivity incorporated in A1B2 (cpm); 500 pmole BYK001, 50 pmole A1B2, incubation 1 min (BYK001): 72500 cpm | Radioactivity incorporated in A1B2 (cpm); 500 pmole BYK001, 50 pmole A1B2, incubation 2 min (BYK001): 134000 cpm | Radioactivity incorporated in A1B2 (cpm); 500 pmole BYK001, 50 pmole A1B2, incubation 5 min (BYK001): 325000 cpm | Radioactivity incorporated in A1B2 (cpm); 5000 pmole BYK001, 50 pmole A1B2, incubation 0.5 min (BYK001): 29900 cpm | Radioactivity incorporated in A1B2 (cpm); 5000 pmole BYK001, 50 pmole A1B2, incubation 1 min (BYK001): 72500 cpm | Radioactivity incorporated in A1B2 (cpm); 5000 pmole BYK001, 50 pmole A1B2, incubation 2 min (BYK001): 141000 cpm | Radioactivity incorporated in A1B2 (cpm); 5000 pmole BYK001, 50 pmole A1B2, incubation 5 min (BYK001): 324000 cpm | Radioactivity incorporated in CapO (cpm); 50 pmole BYK001, 50 pmol A1B2, 50 pmole CapO, incubation 0.5 min (BYK001): 3560 cpm | Radioactivity incorporated in CapO (cpm); 50 pmole BYK001, 50 pmol A1B2, 50 pmole CapO, incubation 1 min (BYK001): 6390 cpm | Radioactivity incorporated in CapO (cpm); 50 pmole BYK001, 50 pmol A1B2, 50 pmole CapO, incubation 2 min (BYK001): 15500 cpm | Radioactivity incorporated in CapO (cpm); 50 pmole BYK001, 50 pmol A1B2, 50 pmole CapO, incubation 5 min (BYK001): 31900 cpm | Radioactivity incorporated in CapO (cpm); 500 pmole BYK001, 50 pmol A1B2, 50 pmole CapO, incubation 0.5 min (BYK001): 3500 cpm | Radioactivity incorporated in CapO (cpm); 500 pmole BYK001, 50 pmol A1B2, 50 pmole CapO, incubation 1 min (BYK001): 6300 cpm | Radioactivity incorporated in CapO (cpm); 500 pmole BYK001, 50 pmol A1B2, 50 pmole CapO, incubation 2 min (BYK001): 15500 cpm | Radioactivity incorporated in CapO (cpm); 500 pmole BYK001, 50 pmol A1B2, 50 pmole CapO, incubation 5 min (BYK001): 31300 cpm | Radioactivity incorporated in CapO (cpm); 5000 pmole BYK001, 50 pmol A1B2, 50 pmole CapO, incubation 0.5 min (BYK001): 3510 cpm | Radioactivity incorporated in CapO (cpm); 5000 pmole BYK001, 50 pmol A1B2, 50 pmole CapO, incubation 1 min (BYK001): 6320 cpm | Radioactivity incorporated in CapO (cpm); 5000 pmole BYK001, 50 pmol A1B2, 50 pmole CapO, incubation 2 min (BYK001): 15500 cpm | Radioactivity incorporated in CapO (cpm); 5000 pmole BYK001, 50 pmol A1B2, 50 pmole CapO, incubation 5 min (BYK001): 31000 cpm
